Test results from paper PMC5656576.

B1: 53 nt model vRNA (ssRNA)
RNA: AGUAGAAACAAGGGUGUUUUUUCAUAUCAUUUAAACUUCACCCUGCUUUUGCU
B2: 165 nt model vRNA (ssRNA)
RNA: AGUAGAAACAAGGUCGUUUUUAAACUAUUCGACACUAAUUGAUGGCCAUCCGAAUUUAUGGUCCACGGUGGUUUUUGUGAGUAUCUCGCGGGUGCGAGACUGCGACAUUAGAUUUCUUAGUUCUUUUAUUCUUUCCAUAUUGAAUAUAAUUGACCUGCUUUCGCU

Key:
[1] = target: NP in preformed NP-UAP56 complex (Influenza A virus, UniProt P03466 1-498); test: EMSA; conditions: protein: recombinant; tags: C-terminal His tag (encoded in primer); chain copies: 6; label: 32P; single strand; partly complementary ends
UAP56 [2] = target: T1, UAP56 (UniProt Q13838 1-428); test: EMSA; conditions: protein: recombinant; tags: GST tag removed with PreScission protease; chain copies: 2; label: 32P; single strand; partly complementary ends
[3] = target: NP (nucleoprotein), His-tagged (Influenza A virus, UniProt P03466 1-498); test: EMSA; conditions: protein: recombinant; tags: C-terminal His tag (encoded in primer); label: 32P; single strand; partly complementary ends
UAP56 [4] = target: T1, UAP56; test: EMSA; UAP56 alone, 0.8-7.2 pmol; conditions: protein: recombinant; tags: GST tag removed with PreScission protease; chain copies: 2; label: 32P; single strand; partly complementary ends

T1 sequence (Q13838 whole entry): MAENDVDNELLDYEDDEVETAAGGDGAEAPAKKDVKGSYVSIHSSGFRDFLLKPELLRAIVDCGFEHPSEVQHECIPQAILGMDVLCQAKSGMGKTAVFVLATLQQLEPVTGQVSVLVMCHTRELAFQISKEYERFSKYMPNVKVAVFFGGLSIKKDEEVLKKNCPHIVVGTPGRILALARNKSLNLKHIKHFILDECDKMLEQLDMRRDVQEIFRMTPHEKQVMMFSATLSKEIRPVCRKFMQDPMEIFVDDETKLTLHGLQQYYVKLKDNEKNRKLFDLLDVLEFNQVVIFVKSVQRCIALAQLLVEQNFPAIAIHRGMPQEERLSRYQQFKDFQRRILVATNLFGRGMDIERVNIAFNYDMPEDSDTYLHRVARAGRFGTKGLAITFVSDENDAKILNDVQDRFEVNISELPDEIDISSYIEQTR
Chain of NP (nucleoprotein), His-tagged (P03466 whole entry): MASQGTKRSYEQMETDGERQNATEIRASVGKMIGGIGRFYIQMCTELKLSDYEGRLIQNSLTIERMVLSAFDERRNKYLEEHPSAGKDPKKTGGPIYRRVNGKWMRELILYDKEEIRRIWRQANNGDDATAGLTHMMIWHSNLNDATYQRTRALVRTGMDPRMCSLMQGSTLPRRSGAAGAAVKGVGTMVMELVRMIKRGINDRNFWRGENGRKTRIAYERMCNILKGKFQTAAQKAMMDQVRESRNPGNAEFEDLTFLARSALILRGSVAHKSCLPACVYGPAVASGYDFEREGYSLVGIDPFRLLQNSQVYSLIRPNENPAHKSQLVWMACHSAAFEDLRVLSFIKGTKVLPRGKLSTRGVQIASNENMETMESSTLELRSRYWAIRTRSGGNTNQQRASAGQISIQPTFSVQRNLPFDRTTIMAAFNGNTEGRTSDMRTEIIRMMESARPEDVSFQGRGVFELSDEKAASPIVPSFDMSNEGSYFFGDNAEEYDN
Chain of NP in preformed NP-UAP56 complex (P03466 whole entry, one chain of several): as the sequence (P03466 whole entry) above

Binder | binding result [1] | binding result (UAP56 [2]) | binding result [3] | binding result (UAP56 [4])
B1 | binds | no binding | binds | –
B2 | binds | – | binds | no binding
